According to IntAct's records for PubMed 35512704:

B1: Mothers against decapentaplegic homolog 4 (Homo sapiens), Q13485 (parent)
chain: MDNMSITNTPTSNDACLSIVHSLMCHRQGGESETFAKRAIESLVKKLKEKKDELDSLITAITTNGAHPSKCVTIQRTLDGRLQVAGRKGFPHVIYARLWRWPDLHKNELKHVKYCQYAFDLKCDSVCVNPYHYERVVSPGIDLSGLTLQSNAPSSMMVKDEYVHDFEGQPSLSTEGHSIQTIQHPPSNRASTETYSTPALLAPSESNATSTANFPNIPVASTSQPASILGGSHSEGLLQIASGPQPGQQQNGFTGQPATYHHNSTTTWTGSRTAPYTPNLPHHQNGHLQHHPPMPPHPGHYWPVHNELAFQPPISNHPAPEYWCSIAYFEMDVQVGETFKVPSSCPIVTVDGYVDPSGGDRFCLGQLSNVHRTEAIERARLHIGKGVQLECKGEGDVWVRCLSDHAVFVQSYYLDREAGRAPGDAVHKIYPSAYIKVFDLRQCHRQMQQQAATAQAAAAAQAAAVAGNIPGPGSVGGIAPAISLSAAAGIGVDDLRRLCILRMSFVKGWGPDYPRQSIKETPCWIEIHLHRALQLLDEVLHTMPIADPQPLD
partner: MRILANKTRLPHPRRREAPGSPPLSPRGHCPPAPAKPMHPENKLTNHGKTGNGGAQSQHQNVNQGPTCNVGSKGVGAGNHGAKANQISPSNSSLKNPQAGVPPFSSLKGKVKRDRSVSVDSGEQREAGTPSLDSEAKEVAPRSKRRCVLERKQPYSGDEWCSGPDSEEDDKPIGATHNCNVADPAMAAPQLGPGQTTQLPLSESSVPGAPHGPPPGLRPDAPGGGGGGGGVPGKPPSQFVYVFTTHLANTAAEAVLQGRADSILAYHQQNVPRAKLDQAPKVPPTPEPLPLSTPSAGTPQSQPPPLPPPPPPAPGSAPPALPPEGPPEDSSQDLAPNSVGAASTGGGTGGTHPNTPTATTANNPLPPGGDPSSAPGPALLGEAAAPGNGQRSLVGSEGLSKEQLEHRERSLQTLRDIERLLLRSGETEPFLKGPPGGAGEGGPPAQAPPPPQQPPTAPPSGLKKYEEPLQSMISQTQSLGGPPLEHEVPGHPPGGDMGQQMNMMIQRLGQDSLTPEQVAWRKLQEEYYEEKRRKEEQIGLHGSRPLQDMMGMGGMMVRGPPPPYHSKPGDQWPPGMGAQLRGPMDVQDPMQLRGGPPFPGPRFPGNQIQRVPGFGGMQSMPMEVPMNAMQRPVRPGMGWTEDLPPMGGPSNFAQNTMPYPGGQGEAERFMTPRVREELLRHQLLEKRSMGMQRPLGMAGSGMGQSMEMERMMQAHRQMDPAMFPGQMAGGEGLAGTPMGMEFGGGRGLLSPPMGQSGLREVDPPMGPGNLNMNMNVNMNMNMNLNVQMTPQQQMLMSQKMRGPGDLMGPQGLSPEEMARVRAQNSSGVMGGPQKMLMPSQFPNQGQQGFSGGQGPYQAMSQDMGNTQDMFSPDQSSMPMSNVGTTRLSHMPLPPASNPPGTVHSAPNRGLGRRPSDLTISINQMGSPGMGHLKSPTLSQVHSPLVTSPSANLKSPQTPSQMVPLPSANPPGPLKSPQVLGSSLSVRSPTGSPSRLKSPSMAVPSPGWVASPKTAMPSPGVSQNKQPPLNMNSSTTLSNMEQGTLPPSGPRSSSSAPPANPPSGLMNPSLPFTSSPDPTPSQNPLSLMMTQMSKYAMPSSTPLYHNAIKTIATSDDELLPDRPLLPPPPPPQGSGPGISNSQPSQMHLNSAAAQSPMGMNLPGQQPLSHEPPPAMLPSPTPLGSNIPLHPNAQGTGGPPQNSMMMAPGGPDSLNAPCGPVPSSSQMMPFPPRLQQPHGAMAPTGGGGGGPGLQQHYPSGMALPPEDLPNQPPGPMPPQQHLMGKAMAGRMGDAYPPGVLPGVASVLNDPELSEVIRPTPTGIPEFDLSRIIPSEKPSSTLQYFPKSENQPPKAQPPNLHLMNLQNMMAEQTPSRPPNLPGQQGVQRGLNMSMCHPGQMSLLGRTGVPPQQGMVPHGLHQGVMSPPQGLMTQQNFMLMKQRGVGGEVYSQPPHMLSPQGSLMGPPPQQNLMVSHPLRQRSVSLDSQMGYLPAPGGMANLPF
B2: Mothers against decapentaplegic homolog 4 (Homo sapiens), Q13485 (parent)
chain: B1 chain
partner: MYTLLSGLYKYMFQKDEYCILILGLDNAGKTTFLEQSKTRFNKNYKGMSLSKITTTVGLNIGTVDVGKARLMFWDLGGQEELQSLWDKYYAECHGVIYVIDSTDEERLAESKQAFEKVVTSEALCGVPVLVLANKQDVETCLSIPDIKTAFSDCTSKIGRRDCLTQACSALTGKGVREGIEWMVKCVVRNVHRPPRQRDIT
B3: Mothers against decapentaplegic homolog 4 (Homo sapiens), Q13485 (parent)
chain: B1 chain
partner: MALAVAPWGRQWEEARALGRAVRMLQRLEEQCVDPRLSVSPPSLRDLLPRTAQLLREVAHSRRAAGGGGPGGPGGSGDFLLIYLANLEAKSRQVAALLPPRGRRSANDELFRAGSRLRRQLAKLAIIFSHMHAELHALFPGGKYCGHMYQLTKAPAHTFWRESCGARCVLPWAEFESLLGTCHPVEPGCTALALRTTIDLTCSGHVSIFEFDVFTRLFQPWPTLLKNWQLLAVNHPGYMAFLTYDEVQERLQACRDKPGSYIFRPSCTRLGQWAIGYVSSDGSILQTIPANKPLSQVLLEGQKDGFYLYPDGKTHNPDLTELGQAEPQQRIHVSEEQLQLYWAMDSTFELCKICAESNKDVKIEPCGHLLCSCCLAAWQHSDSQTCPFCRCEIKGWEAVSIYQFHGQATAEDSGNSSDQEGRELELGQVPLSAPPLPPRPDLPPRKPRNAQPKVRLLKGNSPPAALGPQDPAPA
B4: Mothers against decapentaplegic homolog 4 (Homo sapiens), Q13485 (parent)
chain: B1 chain
partner: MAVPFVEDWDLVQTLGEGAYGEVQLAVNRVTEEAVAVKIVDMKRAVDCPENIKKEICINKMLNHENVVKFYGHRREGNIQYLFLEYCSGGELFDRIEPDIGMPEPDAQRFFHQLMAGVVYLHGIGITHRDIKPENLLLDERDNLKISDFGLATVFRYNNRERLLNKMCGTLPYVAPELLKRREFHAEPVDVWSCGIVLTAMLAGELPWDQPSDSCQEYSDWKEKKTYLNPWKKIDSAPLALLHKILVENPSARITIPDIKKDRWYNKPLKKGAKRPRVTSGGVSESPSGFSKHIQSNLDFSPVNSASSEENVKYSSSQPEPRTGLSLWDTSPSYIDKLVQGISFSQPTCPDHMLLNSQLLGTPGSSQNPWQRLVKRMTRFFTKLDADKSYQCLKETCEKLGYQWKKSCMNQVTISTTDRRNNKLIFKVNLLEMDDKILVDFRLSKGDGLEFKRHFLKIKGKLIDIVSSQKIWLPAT
B5: Mothers against decapentaplegic homolog 4 (Homo sapiens), Q13485 (parent)
chain: B1 chain
partner: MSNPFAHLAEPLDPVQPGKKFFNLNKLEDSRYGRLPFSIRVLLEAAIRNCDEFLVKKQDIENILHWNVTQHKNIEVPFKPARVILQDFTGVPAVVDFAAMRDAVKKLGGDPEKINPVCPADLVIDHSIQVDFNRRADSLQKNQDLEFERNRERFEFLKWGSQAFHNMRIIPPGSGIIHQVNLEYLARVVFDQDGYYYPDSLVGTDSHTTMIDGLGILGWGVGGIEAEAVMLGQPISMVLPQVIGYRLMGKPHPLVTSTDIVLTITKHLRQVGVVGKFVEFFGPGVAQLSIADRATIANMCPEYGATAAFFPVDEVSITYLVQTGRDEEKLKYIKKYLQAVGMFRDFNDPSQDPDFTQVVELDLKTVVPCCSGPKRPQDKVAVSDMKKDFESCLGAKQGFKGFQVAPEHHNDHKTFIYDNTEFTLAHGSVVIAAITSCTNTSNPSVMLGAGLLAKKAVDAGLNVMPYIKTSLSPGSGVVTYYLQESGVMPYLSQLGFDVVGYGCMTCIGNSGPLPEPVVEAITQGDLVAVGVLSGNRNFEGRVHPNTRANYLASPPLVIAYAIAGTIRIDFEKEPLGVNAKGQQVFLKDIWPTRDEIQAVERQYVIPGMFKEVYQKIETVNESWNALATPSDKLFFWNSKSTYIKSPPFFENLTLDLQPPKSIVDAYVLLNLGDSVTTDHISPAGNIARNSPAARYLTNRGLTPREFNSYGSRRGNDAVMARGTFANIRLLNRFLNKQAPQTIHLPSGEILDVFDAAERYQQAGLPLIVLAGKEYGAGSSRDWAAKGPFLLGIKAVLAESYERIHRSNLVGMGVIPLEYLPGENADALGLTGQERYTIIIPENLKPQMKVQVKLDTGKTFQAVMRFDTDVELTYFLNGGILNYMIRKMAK
B6: Mothers against decapentaplegic homolog 4 (Homo sapiens), Q13485 (parent)
chain: B1 chain
partner: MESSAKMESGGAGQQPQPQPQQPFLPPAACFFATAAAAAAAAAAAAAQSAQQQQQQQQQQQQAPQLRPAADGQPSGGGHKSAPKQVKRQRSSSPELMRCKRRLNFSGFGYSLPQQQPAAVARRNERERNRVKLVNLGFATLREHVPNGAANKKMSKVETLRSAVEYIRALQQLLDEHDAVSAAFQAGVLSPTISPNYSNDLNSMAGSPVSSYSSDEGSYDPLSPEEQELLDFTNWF

Variants of: B1
Conditions: with bcl9l_human BCL9L

Variant	effect of a mutation on the interaction
R361C	with no effect

Variants of: B1
Conditions: with bcl9l_human BCL9L
Remark: another data set of the same source

Variant	effect of a mutation on the interaction
R361H	with no effect

Variants of: B1
Conditions: with bcl9l_human BCL9L
Remark: another data set of the same source

Variant	effect of a mutation on the interaction
G386D	with no effect

Variants of: B2
Conditions: with arfrp_human ARFRP1, Q13795

Variant	effect of a mutation on the interaction
R361C	with no effect

Variants of: B2
Conditions: with arfrp_human ARFRP1, Q13795
Remark: another data set of the same source

Variant	effect of a mutation on the interaction
R361H	with no effect

Variants of: B2
Conditions: with arfrp_human ARFRP1, Q13795
Remark: another data set of the same source

Variant	effect of a mutation on the interaction
D351H	with no effect

Variants of: B2
Conditions: with arfrp_human ARFRP1, Q13795
Remark: another data set of the same source

Variant	effect of a mutation on the interaction
G386D	with no effect

Variants of: B3
Conditions: with cblc_human CBLC

Variant	effect of a mutation on the interaction
G386D	with no effect

Variants of: B3
Conditions: with cblc_human CBLC
Remark: another data set of the same source

Variant	effect of a mutation on the interaction
R361C	with no effect

Variants of: B3
Conditions: with cblc_human CBLC
Remark: another data set of the same source

Variant	effect of a mutation on the interaction
R361H	with no effect

Variants of: B3
Conditions: with cblc_human CBLC
Remark: another data set of the same source

Variant	effect of a mutation on the interaction
D351H	with no effect

Variants of: B4
Conditions: with chk1_human CHEK1, O14757

Variant	effect of a mutation on the interaction
G386D	with no effect

Variants of: B4
Conditions: with chk1_human CHEK1, O14757
Remark: another data set of the same source

Variant	effect of a mutation on the interaction
D351H	with no effect

Variants of: B4
Conditions: with chk1_human CHEK1, O14757
Remark: another data set of the same source

Variant	effect of a mutation on the interaction
R361H	with no effect

Variants of: B4
Conditions: with chk1_human CHEK1, O14757
Remark: another data set of the same source

Variant	effect of a mutation on the interaction
R361C	with no effect

Variants of: B5
Conditions: with acohc_human ACO1, P21399

Variant	effect of a mutation on the interaction
D351H	with no effect

Variants of: B5
Conditions: with acohc_human ACO1, P21399
Remark: another data set of the same source

Variant	effect of a mutation on the interaction
G386D	with no effect

Variants of: B5
Conditions: with acohc_human ACO1, P21399
Remark: another data set of the same source

Variant	effect of a mutation on the interaction
R361C	with no effect

Variants of: B5
Conditions: with acohc_human ACO1, P21399
Remark: another data set of the same source

Variant	effect of a mutation on the interaction
R361H	with no effect

Variants of: B6
Conditions: with ascl1_human ASCL1, P50553

Variant	effect of a mutation on the interaction
D351H	with no effect

Variants of: B6
Conditions: with ascl1_human ASCL1, P50553
Remark: another data set of the same source

Variant	effect of a mutation on the interaction
G386D	with no effect

Variants of: B6
Conditions: with ascl1_human ASCL1, P50553
Remark: another data set of the same source

Variant	effect of a mutation on the interaction
R361H	with no effect

Variants of: B6
Conditions: with ascl1_human ASCL1, P50553
Remark: another data set of the same source

Variant	effect of a mutation on the interaction
R361C	with no effect
